Measured values published in article doi:10.1101/726935.

Target: EBOV VP35 WT oligomerization domain (Zaire ebolavirus, Yambuku-Mayinga) (UniProt Q05127)
Experiment: SEC-MALS

## EBOV VP35 WT oligomerization domain (from UniProt Q05127 75-185) (domain or fragment)
  stoichiometry N: 4
